According to patent US20160075792A1 (Kyowa Kirin, published 2016):

Molecular target: T1, human CD40 (human, UniProt P25942 21-277)
T1 construct: Endogenous CD40 on Ramos cells (ATCC CRL-1596), 'which expresses human CD40'
Assay: flow cytometry (FACS, MFI) on Ramos cells expressing human CD40, R-PE anti-human antibody detection
Description: The Ramos cell line was suspended in staining buffer (SB) of PBS containing 0.1% NaN₃, 2 mM EDTA, and 2% FCS at a density of […]. The cell suspension (100 μL/well) was dispensed into a 96-well round-bottom plate (manufactured by Becton Dickinson). The purified antibody (50 μL) was added thereto, followed by incubation at ice temperature for 30 minutes. As negative control, an anti-human IgG2 antibody against 2,4-dinitrophenol was used and the purified antibodies (50 μL) were similarly added, followed by incubation at ice temperature for 15 minutes. After the cells were washed with SB, 50 μL of 250-fold diluted R-PE fluorescence-labeled anti-human antibodies (manufactured by Southern Biotechnology) was added thereto, followed by incubation at ice temperature for 15 minutes. The cells were washed twice with SB and suspended in 300 to 500 μL of FACS buffer. And the fluorescence intensity (MFI) of individual cells was measured by FACS (FACScalibur, manufactured by Becton Dickinson).

T1 sequence (P25942 21-277 limits assumed): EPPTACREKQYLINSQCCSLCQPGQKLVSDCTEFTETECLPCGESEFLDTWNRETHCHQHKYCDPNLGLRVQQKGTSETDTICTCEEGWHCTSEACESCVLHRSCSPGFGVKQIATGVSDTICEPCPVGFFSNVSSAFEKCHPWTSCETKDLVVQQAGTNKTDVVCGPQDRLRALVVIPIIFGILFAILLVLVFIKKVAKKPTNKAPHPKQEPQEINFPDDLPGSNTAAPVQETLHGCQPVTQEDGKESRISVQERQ

binding result | Binder
binds | IgG2-AAS(341) antibody (antibody, kappa light chain; Signal peptides (1-20 of each chain, estimated by SignalP) are left out; Expressed transiently in 293 cells and purified on protein A) heavy: QVQLQQSGPGLVKPSQTLSLTCAISGDSVSSNSATWNWIRQSPSRDLEWLGRTYYRSKWYRDYVGSVKSRIIINPDTSNNQFSLQLNSVTPEDTAIYYCTRAQWLGGDYPYYYSMDVWGQGTTVTVSSASTKGPSVFPLAPCSRSTSESTAALGCLVKDYFPEPVTVSWNSGALTSGVHTFPAVLQSSGLYSLSSVVTVPSSNFGTQTYTCNVDHKPSNTKVDKTVERKCCVECPPCPAPPAAAPSVFLFPPKPKDTLMISRTPEVTCVVVDVSHEDPEVQFNWYVDGVEVHNAKTKPREEQFNSTFRVVSVLTVVHQDWLNGKEYKCKVSNKGLPASIEKTISKTKGQPREPQVYTLPPSREEMTKNQVSLTCLVKGFYPSDIAVEWESNGQPENNYKTTPPMLDSDGSFFLYSKLTVDKSRWQQGNVFSCSVMHEALHNHYTQKSLSLSPGK light: not shown
binds | IgG2-S(341) antibody (antibody) heavy: QVQLQQSGPGLVKPSQTLSLTCAISGDSVSSNSATWNWIRQSPSRDLEWLGRTYYRSKWYRDYVGSVKSRIIINPDTSNNQFSLQLNSVTPEDTAIYYCTRAQWLGGDYPYYYSMDVWGQGTTVTVSSASTKGPSVFPLAPCSRSTSESTAALGCLVKDYFPEPVTVSWNSGALTSGVHTFPAVLQSSGLYSLSSVVTVPSSNFGTQTYTCNVDHKPSNTKVDKTVERKCCVECPPCPAPPVAGPSVFLFPPKPKDTLMISRTPEVTCVVVDVSHEDPEVQFNWYVDGVEVHNAKTKPREEQFNSTFRVVSVLTVVHQDWLNGKEYKCKVSNKGLPASIEKTISKTKGQPREPQVYTLPPSREEMTKNQVSLTCLVKGFYPSDIAVEWESNGQPENNYKTTPPMLDSDGSFFLYSKLTVDKSRWQQGNVFSCSVMHEALHNHYTQKSLSLSPGK light: not shown
